Test results taken from patent US20240392036A1 (UNIVERSITEIT GENT, published 2024).

B1: α-APN-mIgG1 (clone IMM013), APN-specific mouse IgG1 monoclonal antibody (antibody)
heavy: QAYLQQSGAELVRSGASVKMSCKASGYTFTSYNMHWVKQTPGQGLEWIGYIYPGNGDINYNQKFKGKATLTADTSSNTAYMQISSLTSEDSAVYFCARGGVFDYWGQGTTLIVSSAKTTPPSVYPLAPGSAAQTNSMVTLGCLVKGYFPEPVTVTWNSGSLSSGVHTFPAVLQSDLYTLSSSVTVPSSTWPSETVTCNVAHPASSTKVDKKIVPRDCGCKPCICTVPEVSSVFIFPPKPKDVLTITLTPKVTCVVVDISKDDPEVQFSWFVDDVEVHTAQTQPREEQFNSTFRSVSELPIMHQDWLNGKEFKCRVNSAAFPAPIEKTISKTKGRPKAPQVYTIPPPKEQMAKDKVSLTCMITDFFPEDITVEWQWNGQPAENYKNTQPIMDTDGSYFVYSKLNVQKSNWEAGNTFTCSVLHEGLHNHHTEKSLSHSPGK
light: QIVLTQSPAIVSASPGEKVTITCSGSSSVNYMHWFQQKPGTSPKLWIYSTSNLASGVPGRFSGSGSGTSYSLTISRMEAEDAATYYCQQRTSYPYTFGGGTKLEIKRADAAPTVSIFPPSSEQLTSGGASVVCFLNNFYPKDINVKWKIDGSERQNGVLNSWTDQDSKDSTYSMSSTLTLTKDEYERHNSYTCEATHKTSTSPIVKSFNRNEC
notes: Purified from hybridoma supernatant by protein G; also called IMMO13; α-APN mAb (clone IMM013)
B2: α-APN-mIgG1-FedF fusion construct (clone IMM013 mouse IgG1 with FedF15-165 fused to the heavy chain) (other)
heavy: QAYLQQSGAELVRSGASVKMSCKASGYTFTSYNMHWVKQTPGQGLEWIGYIYPGNGDINYNQKFKGKATLTADTSSNTAYMQISSLTSEDSAVYFCARGGVFDYWGQGTTLIVSSAKTTPPSVYPLAPGSAAQTNSMVTLGCLVKGYFPEPVTVTWNSGSLSSGVHTFPAVLQSDLYTLSSSVTVPSSTWPSETVTCNVAHPASSTKVDKKIVPRDCGCKPCICTVPEVSSVFIFPPKPKDVLTITLTPKVTCVVVDISKDDPEVQFSWFVDDVEVHTAQTQPREEQFNSTFRSVSELPIMHQDWLNGKEFKCRVNSAAFPAPIEKTISKTKGRPKAPQVYTIPPPKEQMAKDKVSLTCMITDFFPEDITVEWQWNGQPAENYKNTQPIMDTDGSYFVYSKLNVQKSNWEAGNTFTCSVLHEGLHNHHTEKSLSHSPGKGGGGSGGGGSGGGGSNSSASSAQVTGTLLGTGKTNTTQMPALYTWQHQIYNVNFIPSSSGTLTCQAGTILVWKNGRETQYALECRVSIHHSSGSINESQWGQQSQVGFGTACGNKKCRFTGFEISLRIPPNAQTYPLSSGDLKGSFSLTNKEVNWSASIYVPAIAK
light: B1 light
notes: also called FedF-linked α-APN-mIgG1; aAPN-mIgG1-FedF

Columns and labels:
[1] = molecular target: T1, porcine kidney aminopeptidase N (APN), purified (Sigma) (porcine (Sus scrofa), UniProt P15145 33-963, biotinylated (1:3 ratio) when used as ligand in BLI); experiment: bio-layer interferometry, biotinylated porcine APN on SAX biosensor, series of analyte concentrations (not labelled on the sheet)
T1 construct: Used coated in ELISA and biotinylated on SAX biosensors in BLI; also called purified kidney APN; porcine APN
T1 sequence: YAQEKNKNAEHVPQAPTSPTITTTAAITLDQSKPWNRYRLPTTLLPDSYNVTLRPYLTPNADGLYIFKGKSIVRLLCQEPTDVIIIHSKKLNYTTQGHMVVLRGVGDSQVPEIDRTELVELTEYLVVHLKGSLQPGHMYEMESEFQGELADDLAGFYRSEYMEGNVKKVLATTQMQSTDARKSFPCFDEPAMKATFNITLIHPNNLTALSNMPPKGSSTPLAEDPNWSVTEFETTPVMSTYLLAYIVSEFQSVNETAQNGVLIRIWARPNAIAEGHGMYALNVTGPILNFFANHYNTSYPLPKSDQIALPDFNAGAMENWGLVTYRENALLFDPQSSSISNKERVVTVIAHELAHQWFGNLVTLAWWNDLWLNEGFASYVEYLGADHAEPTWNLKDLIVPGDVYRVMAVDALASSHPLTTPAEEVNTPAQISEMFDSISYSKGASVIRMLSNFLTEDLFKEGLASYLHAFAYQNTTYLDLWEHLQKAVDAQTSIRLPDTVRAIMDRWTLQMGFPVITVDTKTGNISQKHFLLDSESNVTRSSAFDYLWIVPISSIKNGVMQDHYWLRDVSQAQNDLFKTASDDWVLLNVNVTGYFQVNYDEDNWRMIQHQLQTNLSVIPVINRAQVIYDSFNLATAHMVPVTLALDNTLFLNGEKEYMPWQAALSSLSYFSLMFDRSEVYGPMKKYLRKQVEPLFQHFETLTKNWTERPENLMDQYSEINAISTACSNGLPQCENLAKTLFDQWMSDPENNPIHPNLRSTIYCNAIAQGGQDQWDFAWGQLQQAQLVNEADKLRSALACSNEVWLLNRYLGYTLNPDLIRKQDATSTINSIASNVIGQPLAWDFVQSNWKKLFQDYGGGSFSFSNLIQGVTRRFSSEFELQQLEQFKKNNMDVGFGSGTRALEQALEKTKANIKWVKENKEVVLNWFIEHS

[2] = molecular target: T1, porcine kidney aminopeptidase N (APN), …; experiment: BLI (Octet RED96), biotinylated porcine APN on SAX biosensor, mAb at 100 nM, 1:1 local full fit

Binder	Kd [1] [nM]	Kd [2] [nM]
B1	1.4	1.6
B2	5.1	–
